Assay results as given in patent publication US8258099B2, “Pin1-modulating compounds and methods of use thereof” (Max-Planck-Gesellschaft zur Foerderung der Wissenschaften …, priority 2004, dated 2012).
Square brackets hold non-standard residues; d marks the D form. Peptide text beside a SMILES is read from it. * marks the point of attachment. Biotin = O=C1N[C@H]2[C@H](CS[C@H]2CCCCC(=O)*)N1; pT = C[C@@H](OP(=O)(O)O)[C@H](N)C(=O)O; 2Nal = N[C@@H](Cc1ccc2ccccc2c1)C(=O)O; Bta = N[C@@H](Cc1csc2ccccc12)C(=O)O; Pip = O=C(O)[C@@H]1CCCCN1

Key:
[1] = target: T1, full length hPin1 (Homo sapiens, UniProt Q13526); assay: Isothermal titration calorimetry (ITC), full length hPin1; format: binding
T1 construct: The protease free assay ensures reliable measurement of IC50 values for the full-length hPin1
T1 sequence (Q13526 whole entry): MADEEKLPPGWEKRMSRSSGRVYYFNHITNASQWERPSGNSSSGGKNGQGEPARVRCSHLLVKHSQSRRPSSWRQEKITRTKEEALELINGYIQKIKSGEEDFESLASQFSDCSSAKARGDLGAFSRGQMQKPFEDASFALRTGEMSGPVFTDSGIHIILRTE
Procedure: FIGS. 3A-B depicts a thermodynamic characterization of the binding of peptide 17 towards full length hPin1 by isothermal titration calorimetry (ITC). FIG. 3A depicts peaks that represent the heat evolved after injection of peptide 17 into the sample cell containing hPin1. After the 11th injection only the heat of dilution is observed. The experiment was performed at 10 C. FIG. 3B depicts integrals of the corresponding peaks of panel A are plotted against the molar ratio of peptide 17 and hPin1. The solid line represents a nonlinear least squares fit analysis of the binding heat assuming a single binding site model with the following parameters: ΔHbind=−4561±36 cal/mol, TΔSbind=5433±529 cal/mol, n=0.96 (binding stoichiometry) and KAss=5.18×10^7±7×10^6 M^−1 (association constant).
Calorimetric experiments were performed using a VP-ITC titration calorimeter (MicroCal, Inc, Northampton, Mass.) at 10° C. All solutions were degassed under vacuum prior to use. Solutions of hPin1 and hPin1 PPIase domain were dialyzed against 10 mM Hepes (pH 7.8). The protein concentration in the sample cell was adjusted to 6.5 μM using the same batch of buffer. Protein concentrations were determined as described above. The volume of the protein solution in the sample cell was 1.4 ml. The injection syringe was filled with 300 μl solution of peptide 17 (see table III) (250 μM in the same batch of buffer as used for dialyses). Each titration experiment consisted of a single 1 μl injection followed by 16 identical injections of 5 μl solution of peptide 17.
In principle, minimally four forms of a competing substrate in the presence of hPin1 have to be considered, the free cis and trans isomers together with two Michaelis complexes. This four-site exchange model of PPIase catalysis involves understanding predisposing factors of the stability of hPin1/substrate complexes, expected to be weaker, than the stability for those formed by phosphopeptides lacking substrate properties. The consequent increase in inhibitory potency could be realized by a transition state destabilizing substitution in peptide 15. Previous studies have shown that following C^α-stereocenter inversion of a substrate at the P1 position the parvulins fully retain substrate-like active site affinity for the derivatives while catalytic rate acceleration is abolished (Schiene et al., 1998). […] To optimize solute diffusion after mechanical injection of the Pin1 binding peptides into the viscous Xenopus laevis egg cytosol, the molecular weight of 1376.5 for peptide 16 was reduced to 823.8 for peptide 17. Following chain truncation peptide 17 maintained high affinity for Pin1 (Table III). To ensure domain selectivity, the binding of peptide 17 towards hPin1 was characterized using the isothermal titration calorimetry (ITC). […] The dissociation constant determined with ITC is in the same range as obtained in the protease-free PPIase assay (Table III).

[2] = target: T2, GST-hPin1, GST-hPin1 PPIase and GST-hPin1 WW domain (Homo sapiens, UniProt Q13526); assay: Far western blot related analysis, hPin1 and its single domains; format: binding; settings: 1 μM peptide 15, 50 μM nonphosphorylated derivative
T2 construct: made in house
T2 sequence (Q13526 whole entry, the tested form may be a part): as the sequence (Q13526 whole entry) above
Procedure: FIGS. 2A-B depict western blot experiments analyzing the binding of peptide 15 to Pin1. FIG. 2A depicts the binding preferences of the PPIase and WW domain of hPin1 regarding peptide 15. In far western blot related experiments, increasing amounts (from left to right: 1, 5, 10, 52.5, 105 pmol) of GST, GST-hPin1 or its single GST-hPin1 PPIase and GST-hPin1 WW domain were spotted onto nitrocellulose membranes followed by a blocking procedure. The membranes were then incubated with a 1 μM solution of peptide 15 or 50 μM solution of its nonphosphorylated derivative (control). Signals were detected after incubation of the nitrocellulose membranes with horseradish peroxidase-conjugated streptavidin followed by a chemiluminescent reaction using the SuperSignal® substrate. FIG. 2B depicts an analysis of the binding of peptide 15 towards different GST-hPin1 variants. […] Residual PPIase activities of GST-hPin1 and its variants were determined according to Zhou et al., 2000 and/or Yaffe et al., 1997. The PPIase activity of the GST-hPin1 variant Ser16Glu was measured in the protease free PPIase assay.
GST-hPin1 variants, GST-hPin1 PPIase and GST-hPin1 WW domain were prepared as described previously (Ranganathan et al., 1997, Zhou et al., 2000). […] Specific bound peptide 15 was detected by a chemiluminescent reaction using the SuperSignal® substrate (Pierce).

[3] = target: T3, hPin1 (Homo sapiens, UniProt Q13526); assay: Protease free PPIase assay, hPin1; format: biochemical; settings: 25 μM, phosphoester group on threonine lacking
T3 construct: The protease free assay ensures reliable measurement of IC50 values for the full-length hPin1
T3 sequence (Q13526 whole entry): as above
Procedure: Protein concentrations were determined using the extinction coefficient ε280=21030 M^−1 cm^−1 for hPin1, ε280=6979 M^−1 cm^−1 for the hPin1 PPIase domain, ε280=21030 M^−1 cm^−1 for XlPin1, ε280=8250 M^−1 cm^−1 for hPar14 and ε280=8250 M^−1 cm^−1 for hCyp18. Extinction coefficients were calculated using the program ProtParam Tool at ExPASy (SIB, Switzerland). All measurements were done at 10° C. in 35 mM Hepes buffer (pH 7.8).
The determination of the kinetic constants of the cis/trans isomerization within the protease-free system was performed using fluorescence based measurements (Garcia-Echeverria et al., 1993, Zhang et al., 2002) on a Hitachi F-3010 fluorescence spectrophotometer with H-Abz-Ala-Glu-Pro-Phe-NH-Np (SEQ ID NO: 2) as substrate. The substrate stock solution was 12 mM in anhydrous trifluoroethanol/0.55 M LiCl. Measurements were initiated by addition of the substrate (final concentration 10 μM) to a pre-incubated (15 min) mixture of 8.8 nM hPin1 or 7.1 nM XlPin1 and respective inhibitory peptide of desired concentrations. The excitation wavelength was 320 nm (spectral bandwidth 3 nm) and emission was detected at 420 nm (spectral bandwidth 10 nm).
Data analysis was performed by single-exponential nonlinear regression using the SigmaPlot Scientific Graphing System Version 5.00 (Jandel Corp.). The apparent first order rate constant kobs was computed by nonlinear regression of the progress curve obtained for the respective measurement. The rate constant k0 was determined in the absence of Pin1. The first order rate constants kenz was calculated from the equation kenz=kobs−k0. IC50 and Ki values were determined by fitting the first order rate constants kenz against the concentration of the inhibitory peptide by nonlinear regression according to Schutkowski et al., 1995 or a model for tight binding inhibitors (Morrison, 1969).
The protease free assay ensures reliable measurement of IC50 values for the full-length hPin1.

Row | binding to GST-hPin1 and its PPIase and WW domains [2] | hPin1 inhibition [3] | Compound | Kd [1]
1 |  |  | CC(=O)N[C@@H](Cc1ccccc1)C(=O)N[C@H](C(=O)N1CCCC[C@H]1C(=O)N[C@@H](Cc1ccc2ccccc2c1)C(=O)N[C@@H](CCC(N)=O)C(N)=O)[C@@H](C)OP(=O)(O)O [Ac-Phe-L-Thr(PO3H2)-Pip-Nal-Gln-NH2, reference compound] (Ac-F[pT][Pip][2Nal]Q-NH2) | 600 nM
2 | not able to form a complex | does not show any hPin1 inhibition | nonphosphorylated derivative of peptide 15: peptide 15 lacking the phosphoester group on threonine, used as control (Ac-K(Biotin)AA[Bta]T[Pip][2Nal]Q-NH2; SMILES CC(=O)N[C@@H](CCCCNC(=O)CCCC[C@@H]1SC[C@@H]2NC(=O)N[C@@H]21)C(=O)N[C@@H](C)C(=O)N[C@@H](C)C(=O)N[C@@H](Cc1csc2ccccc12)C(=O)N[C@H](C(=O)N1CCCC[C@H]1C(=O)N[C@@H](Cc1ccc2ccccc2c1)C(=O)N[C@@H](CCC(N)=O)C(N)=O)[C@@H](C)O) [reference compound] | 
